# Columns and labels:
# [1] = molecular target: FcγRIIa (low affinity immunoglobulin gamma Fc region receptor II-a) (human) (UniProt P12318); assay: co-immunoprecipitation with FcγRIIa from activated platelets, mass spectrometry of the excised band
# [2] = molecular target: activated GP IIb-IIIa (human, UniProt P08514 32-1039; P05106 27-788); assay: cell-based or functional assay
# [3] = molecular target: FcγRIIa (low affinity immunoglobulin gamma Fc region receptor II-a) (human) (UniProt P12318); assay: cell-based or functional assay
# Chain of FcγRIIa (low affinity immunoglobulin gamma Fc region receptor II-a) (human) (P12318 34-317 limits assumed, form in doubt): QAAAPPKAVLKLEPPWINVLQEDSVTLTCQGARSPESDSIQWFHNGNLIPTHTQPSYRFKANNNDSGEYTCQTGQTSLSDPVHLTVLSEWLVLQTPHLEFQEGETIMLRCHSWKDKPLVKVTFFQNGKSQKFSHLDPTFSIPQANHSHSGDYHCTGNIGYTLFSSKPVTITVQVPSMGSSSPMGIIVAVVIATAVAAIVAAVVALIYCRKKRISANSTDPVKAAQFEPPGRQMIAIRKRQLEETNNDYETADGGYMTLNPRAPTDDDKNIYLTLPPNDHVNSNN
# Chain of activated GP IIb-IIIa (P08514 32-1039, chain 1 of 2): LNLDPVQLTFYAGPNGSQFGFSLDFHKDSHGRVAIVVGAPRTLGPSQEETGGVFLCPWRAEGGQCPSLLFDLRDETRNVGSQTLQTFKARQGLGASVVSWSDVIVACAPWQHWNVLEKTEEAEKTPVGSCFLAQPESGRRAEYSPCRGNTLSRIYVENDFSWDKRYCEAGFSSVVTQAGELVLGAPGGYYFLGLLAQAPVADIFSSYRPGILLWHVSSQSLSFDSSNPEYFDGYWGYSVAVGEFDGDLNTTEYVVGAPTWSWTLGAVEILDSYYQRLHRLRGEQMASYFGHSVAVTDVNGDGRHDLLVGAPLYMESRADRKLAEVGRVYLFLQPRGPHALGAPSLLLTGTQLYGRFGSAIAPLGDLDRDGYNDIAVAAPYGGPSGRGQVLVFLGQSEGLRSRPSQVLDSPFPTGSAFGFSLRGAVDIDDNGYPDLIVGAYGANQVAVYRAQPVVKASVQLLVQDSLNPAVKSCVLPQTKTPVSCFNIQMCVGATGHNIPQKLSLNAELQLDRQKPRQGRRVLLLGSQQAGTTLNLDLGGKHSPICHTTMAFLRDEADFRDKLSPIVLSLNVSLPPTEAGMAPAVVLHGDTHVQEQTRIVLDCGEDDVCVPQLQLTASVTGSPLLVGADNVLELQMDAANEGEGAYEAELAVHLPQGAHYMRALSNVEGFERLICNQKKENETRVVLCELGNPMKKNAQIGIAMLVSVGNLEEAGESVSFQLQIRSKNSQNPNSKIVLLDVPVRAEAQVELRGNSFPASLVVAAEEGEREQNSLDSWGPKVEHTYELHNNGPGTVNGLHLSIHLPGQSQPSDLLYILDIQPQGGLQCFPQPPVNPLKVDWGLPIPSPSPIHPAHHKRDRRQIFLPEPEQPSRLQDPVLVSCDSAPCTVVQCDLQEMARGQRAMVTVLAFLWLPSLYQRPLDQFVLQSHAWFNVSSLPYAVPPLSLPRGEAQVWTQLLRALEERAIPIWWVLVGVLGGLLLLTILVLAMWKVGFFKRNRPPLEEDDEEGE
# Chain of activated GP IIb-IIIa (P05106 27-788, chain 2 of 2): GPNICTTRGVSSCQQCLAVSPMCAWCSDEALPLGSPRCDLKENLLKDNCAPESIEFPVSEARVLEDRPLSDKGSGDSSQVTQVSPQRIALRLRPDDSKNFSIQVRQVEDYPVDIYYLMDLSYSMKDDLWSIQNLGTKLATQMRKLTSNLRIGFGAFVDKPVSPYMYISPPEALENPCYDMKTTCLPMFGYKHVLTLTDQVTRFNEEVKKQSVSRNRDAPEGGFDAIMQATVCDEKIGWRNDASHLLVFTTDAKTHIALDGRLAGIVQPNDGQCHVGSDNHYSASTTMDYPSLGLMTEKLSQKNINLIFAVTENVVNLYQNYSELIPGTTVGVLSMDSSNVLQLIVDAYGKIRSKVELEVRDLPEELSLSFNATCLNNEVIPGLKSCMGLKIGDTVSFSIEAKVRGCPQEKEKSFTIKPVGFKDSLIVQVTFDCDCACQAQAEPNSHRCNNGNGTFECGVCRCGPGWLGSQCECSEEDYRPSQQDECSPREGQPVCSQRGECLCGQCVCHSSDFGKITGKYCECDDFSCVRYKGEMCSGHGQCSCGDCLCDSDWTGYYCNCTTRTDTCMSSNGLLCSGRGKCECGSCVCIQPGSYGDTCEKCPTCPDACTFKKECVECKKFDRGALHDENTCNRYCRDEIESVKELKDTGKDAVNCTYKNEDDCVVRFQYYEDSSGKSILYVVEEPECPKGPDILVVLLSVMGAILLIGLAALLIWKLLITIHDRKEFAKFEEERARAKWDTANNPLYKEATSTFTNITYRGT
# Chain of filamin (P21333 2-2647): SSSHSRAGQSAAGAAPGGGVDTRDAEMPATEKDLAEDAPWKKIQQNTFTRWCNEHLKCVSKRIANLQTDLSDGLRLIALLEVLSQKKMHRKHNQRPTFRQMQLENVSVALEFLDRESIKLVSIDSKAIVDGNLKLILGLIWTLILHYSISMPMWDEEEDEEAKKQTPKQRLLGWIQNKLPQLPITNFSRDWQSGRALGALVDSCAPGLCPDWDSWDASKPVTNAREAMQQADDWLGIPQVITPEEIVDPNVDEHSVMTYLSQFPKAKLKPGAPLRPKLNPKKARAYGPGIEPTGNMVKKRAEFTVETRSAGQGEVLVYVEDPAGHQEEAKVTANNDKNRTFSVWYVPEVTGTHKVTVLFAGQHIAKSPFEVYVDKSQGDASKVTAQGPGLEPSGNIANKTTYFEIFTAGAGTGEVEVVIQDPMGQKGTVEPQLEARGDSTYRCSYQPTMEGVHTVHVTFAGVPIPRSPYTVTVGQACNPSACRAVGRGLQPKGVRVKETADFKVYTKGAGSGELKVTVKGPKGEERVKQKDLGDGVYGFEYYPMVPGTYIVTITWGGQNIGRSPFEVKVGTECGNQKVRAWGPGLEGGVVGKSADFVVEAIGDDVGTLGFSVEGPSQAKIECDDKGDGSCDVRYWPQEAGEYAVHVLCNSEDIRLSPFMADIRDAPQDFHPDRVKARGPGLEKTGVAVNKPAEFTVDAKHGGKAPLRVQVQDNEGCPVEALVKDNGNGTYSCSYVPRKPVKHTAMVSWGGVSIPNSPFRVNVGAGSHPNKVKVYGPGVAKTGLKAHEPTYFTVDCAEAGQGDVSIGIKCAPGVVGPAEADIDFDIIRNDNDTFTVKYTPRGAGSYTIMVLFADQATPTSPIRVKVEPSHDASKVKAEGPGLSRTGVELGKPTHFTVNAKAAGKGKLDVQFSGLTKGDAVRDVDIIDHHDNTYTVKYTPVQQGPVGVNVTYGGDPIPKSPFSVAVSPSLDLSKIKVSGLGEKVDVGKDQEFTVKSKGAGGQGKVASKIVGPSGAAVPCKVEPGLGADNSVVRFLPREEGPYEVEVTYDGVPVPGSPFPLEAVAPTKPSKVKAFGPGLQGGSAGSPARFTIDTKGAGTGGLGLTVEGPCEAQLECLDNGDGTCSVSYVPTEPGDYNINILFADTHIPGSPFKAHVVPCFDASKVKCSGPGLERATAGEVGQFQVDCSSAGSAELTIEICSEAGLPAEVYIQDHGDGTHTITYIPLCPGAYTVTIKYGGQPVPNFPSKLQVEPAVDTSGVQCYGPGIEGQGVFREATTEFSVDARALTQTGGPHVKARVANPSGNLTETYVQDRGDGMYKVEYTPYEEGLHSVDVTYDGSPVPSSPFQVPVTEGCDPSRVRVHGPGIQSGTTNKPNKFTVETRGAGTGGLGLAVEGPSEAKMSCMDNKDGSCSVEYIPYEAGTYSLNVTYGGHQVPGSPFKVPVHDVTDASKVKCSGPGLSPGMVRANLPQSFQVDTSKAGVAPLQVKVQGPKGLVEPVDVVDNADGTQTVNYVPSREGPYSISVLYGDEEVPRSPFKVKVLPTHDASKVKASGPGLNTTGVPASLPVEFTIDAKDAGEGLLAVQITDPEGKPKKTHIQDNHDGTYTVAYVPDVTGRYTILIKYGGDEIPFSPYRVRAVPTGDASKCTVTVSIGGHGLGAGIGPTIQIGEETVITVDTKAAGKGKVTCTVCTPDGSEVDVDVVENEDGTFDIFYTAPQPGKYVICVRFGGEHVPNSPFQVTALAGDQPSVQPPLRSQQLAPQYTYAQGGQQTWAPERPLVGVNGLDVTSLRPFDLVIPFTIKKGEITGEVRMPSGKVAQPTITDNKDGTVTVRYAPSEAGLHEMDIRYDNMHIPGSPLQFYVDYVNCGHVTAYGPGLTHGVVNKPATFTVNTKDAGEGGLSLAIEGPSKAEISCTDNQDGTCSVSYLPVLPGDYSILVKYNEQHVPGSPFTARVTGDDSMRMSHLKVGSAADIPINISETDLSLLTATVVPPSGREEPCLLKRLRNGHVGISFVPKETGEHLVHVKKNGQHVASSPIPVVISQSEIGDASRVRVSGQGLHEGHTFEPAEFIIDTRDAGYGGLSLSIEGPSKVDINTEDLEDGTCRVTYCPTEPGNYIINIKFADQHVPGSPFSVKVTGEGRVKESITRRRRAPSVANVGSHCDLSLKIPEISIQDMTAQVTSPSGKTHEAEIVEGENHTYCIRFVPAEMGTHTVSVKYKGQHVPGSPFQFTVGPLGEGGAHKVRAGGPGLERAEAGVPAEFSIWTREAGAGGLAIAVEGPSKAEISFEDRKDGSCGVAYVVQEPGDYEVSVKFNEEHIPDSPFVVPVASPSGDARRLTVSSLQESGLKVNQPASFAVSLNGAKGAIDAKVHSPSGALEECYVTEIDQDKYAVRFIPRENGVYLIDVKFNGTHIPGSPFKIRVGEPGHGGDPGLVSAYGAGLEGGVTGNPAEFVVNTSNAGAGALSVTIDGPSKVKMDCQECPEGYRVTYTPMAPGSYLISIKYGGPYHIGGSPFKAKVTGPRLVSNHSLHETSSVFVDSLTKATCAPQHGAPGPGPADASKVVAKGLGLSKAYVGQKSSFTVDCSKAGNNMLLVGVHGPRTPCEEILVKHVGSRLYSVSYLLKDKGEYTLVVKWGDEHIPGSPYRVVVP
Molecule,share of the protein content of the 75 kDa band co-immunoprecipitated with FcγRIIa [1],share of the protein content of the 55 kDa band co-immunoprecipitated with FcγRIIa [1],share of the protein content of the 90 kDa band co-immunoprecipitated with FcγRIIa [1],further results
actin,1%,3%,–,–
SRC kinase Lyn (from UniProt P07948 2-512) (enzyme),–,1%,–,–
filamin,–,–,1%,–
coagulation Factor V (from UniProt P12259 29-2224),4%,–,–,–
"coagulation Factor XIII (enzyme, human, UniProt P00488 2-732, looked up) SETSRTAFGGRRAVPPNNSNAAEDDLPTVELQGVVPRGVNLQEFLNVTSVHLFKERWDTNKVDHHTDKYENNKLIVRRGQSFYVQIDFSRPYDPRRDLFRVEYVIGRYPQENKGTYIPVPIVSELQSGKWGAKIVMREDRSVRLSIQSSPKCIVGKFRMYVAVWTPYGVLRTSRNPETDTYILFNPWCEDDAVYLDNEKEREEYVLNDIGVIFYGEVNDIKTRSWSYGQFEDGILDTCLYVMDRAQMDLSGRGNPIKVSRVGSAMVNAKDDEGVLVGSWDNIYAYGVPPSAWTGSVDILLEYRSSENPVRYGQCWVFAGVFNTFLRCLGIPARIVTNYFSAHDNDANLQMDIFLEEDGNVNSKLTKDSVWNYHCWNEAWMTRPDLPVGFGGWQAVDSTPQENSDGMYRCGPASVQAIKHGHVCFQFDAPFVFAEVNSDLIYITAKKDGTHVVENVDATHIGKLIVTKQIGGDGMMDITDTYKFQEGQEEERLALETALMYGAKKPLNTEGVMKSRSNVDMDFEVENAVLGKDFKLSITFRNNSHNRYTITAYLSANITFYTGVPKAEFKKETFDVTLEPLSFKKEAVLIQAGEYMGQLLEQASLHFFVTARINETRDVLAKQKSTVLTIPEIIIKVRGTQVVGSDMTVTVEFTNPLKETLRNVWVHLDGPGVTRPMKKMFREIRPNSTVQWEEVCRPWVSGHRKLIASMSSDSLRHVYGELDVQIQRRPSM",38%,–,1%,fold induction of ADP-induced activation of platelets by added Factor XIII in the presence of tirofiban (0.5 µg/ml) [2]: 0.8 fold

# Second part, led by results:
share of the protein content of the 75 kDa band co-immunoprecipitated with FcγRIIa [1],share of the protein content of the 55 kDa band co-immunoprecipitated with FcγRIIa [1],share of the protein content of the 90 kDa band co-immunoprecipitated with FcγRIIa [1],Molecule,further results
3%,–,–,nexilin (from UniProt Q0ZGT2 1-675),–
–,–,6%,gelsolin (from UniProt P06396 1-731),–
24%,33%,80%,"fibrinogen (other, human) chain 1: ADSGEGDFLAEGGGVRGPRVVERHQSACKDSDWPFCSDEDWNYKCPSGCRMKGLIDEVNQDFTNRINKLKNSLFEYQKNNKDSHSLTTNIMEILRGDFSSANNRDNTYNRVSEDLRSRIEVLKRKVIEKVQHIQLLQKNVRAQLVDMKRLEVDIDIKIRSCRGSCSRALAREVDLKDYEDQQKQLEQVIAKDLLPSRDRQHLPLIKMKPVPDLVPGNFKSQLQKVPPEWKALTDMPQMRMELERPGGNEITRGGSTSYGTGSETESPRNPSSAGSWNSGSSGPGSTGNRNPGSSGTGGTATWKPGSSGPGSTGSWNSGSSGTGSTGNQNPGSPRPGSTGTWNPGSSERGSAGHWTSESSVSGSTGQWHSESGSFRPDSPGSGNARPNNPDWGTFEEVSGNVSPGTRREYHTEKLVTSKGDKELRTGKEKVTSGSTTTTRRSCSKTVTKTVIGPDGHKEVTKEVVTSEDGSDCPEAMDLGTLSGIGTLDGFRHRHPDEAAFFDTASTGKTFPGFFSPMLGEFVSETESRGSESGIFTNTKESSSHHPGIAEFPSRGKSSSYSKQFTSSTSYNRGDSTFESKSYKMADEAGSEADHEGTHSTKRGHAKSRPVRGIHTSPLGKPSLSP chain 2: QGVNDNEEGFFSARGHRPLDKKREEAPSLRPAPPPISGGGYRARPAKAAATQKKVERKAPDAGGCLHADPDLGVLCPTGCQLQEALLQQERPIRNSVDELNNNVEAVSQTSSSSFQYMYLLKDLWQKRQKQVKDNENVVNEYSSELEKHQLYIDETVNSNIPTNLRVLRSILENLRSKIQKLESDVSAQMEYCRTPCTVSCNIPVVSGKECEEIIRKGGETSEMYLIQPDSSVKPYRVYCDMNTENGGWTVIQNRQDGSVDFGRKWDPYKQGFGNVATNTDGKNYCGLPGEYWLGNDKISQLTRMGPTELLIEMEDWKGDKVKAHYGGFTVQNEANKYQISVNKYRGTAGNALMDGASQLMGENRTMTIHNGMFFSTYDRDNDGWLTSDPRKQCSKEDGGGWWYNRCHAANPNGRYYWGGQYTWDMAKHGTDDGVVWMNWKGSWYSMRKMSMKIRPFFPQQ chain 3: YVATRDNCCILDERFGSYCPTTCGIADFLSTYQTKVDKDLQSLEDILHQVENKTSEVKQLIKAIQLTYNPDESSKPNMIDAATLKSRKMLEEIMKYEASILTHDSSIRYLQEIYNSNNQKIVNLKEKVAQLEAQCQEPCKDTVQIHDITGKDCQDIANKGAKQSGLYFIKPLKANQQFLVYCEIDGSGNGWTVFQKRLDGSVDFKKNWIQYKEGFGHLSPTGTTEFWLGNEKIHLISTQSAIPYALRVELEDWNGRTSTADYAMFKVGPEADKYRLTYAYFAGGDAGDAFDGFDFGDDPSDKFFTSHNGMQFSTWDNDNDKFEGNCAEQDGSGWWMNKCHAGHLNGVYYQGGTYSKASTPNGYDNGIIWATWKTRWYSMKKTTMKIIPFNRLTIGEGQQHHLGGAKQAGDV",fold induction of ADP-induced activation of platelets by added fibrinogen in the presence of tirofiban (0.5 µg/ml) [2]: 1.2 fold; fold induction of ADP-induced activation of platelets (surface expression of P-selectin) after addition of fibrinogen [3]: 1.5 fold; fold induction of ADP-induced activation of platelets by added fibrinogen after pretreatment with IV.3 (100 µg/ml) [3]: 0.9 fold

# — patent publication US20250334575A1 (UNIVERSITY OF VERMONT AND STATE AGRICULTURE COLLEGE, published 2025)
